According to patent publication US20250145690A1 (US Dept. of Health and Human Services, published 2025):

T1: HCoV-OC43 spike protein (HCoV-OC43, UniProt P36334 14-1297)
T1 sequence: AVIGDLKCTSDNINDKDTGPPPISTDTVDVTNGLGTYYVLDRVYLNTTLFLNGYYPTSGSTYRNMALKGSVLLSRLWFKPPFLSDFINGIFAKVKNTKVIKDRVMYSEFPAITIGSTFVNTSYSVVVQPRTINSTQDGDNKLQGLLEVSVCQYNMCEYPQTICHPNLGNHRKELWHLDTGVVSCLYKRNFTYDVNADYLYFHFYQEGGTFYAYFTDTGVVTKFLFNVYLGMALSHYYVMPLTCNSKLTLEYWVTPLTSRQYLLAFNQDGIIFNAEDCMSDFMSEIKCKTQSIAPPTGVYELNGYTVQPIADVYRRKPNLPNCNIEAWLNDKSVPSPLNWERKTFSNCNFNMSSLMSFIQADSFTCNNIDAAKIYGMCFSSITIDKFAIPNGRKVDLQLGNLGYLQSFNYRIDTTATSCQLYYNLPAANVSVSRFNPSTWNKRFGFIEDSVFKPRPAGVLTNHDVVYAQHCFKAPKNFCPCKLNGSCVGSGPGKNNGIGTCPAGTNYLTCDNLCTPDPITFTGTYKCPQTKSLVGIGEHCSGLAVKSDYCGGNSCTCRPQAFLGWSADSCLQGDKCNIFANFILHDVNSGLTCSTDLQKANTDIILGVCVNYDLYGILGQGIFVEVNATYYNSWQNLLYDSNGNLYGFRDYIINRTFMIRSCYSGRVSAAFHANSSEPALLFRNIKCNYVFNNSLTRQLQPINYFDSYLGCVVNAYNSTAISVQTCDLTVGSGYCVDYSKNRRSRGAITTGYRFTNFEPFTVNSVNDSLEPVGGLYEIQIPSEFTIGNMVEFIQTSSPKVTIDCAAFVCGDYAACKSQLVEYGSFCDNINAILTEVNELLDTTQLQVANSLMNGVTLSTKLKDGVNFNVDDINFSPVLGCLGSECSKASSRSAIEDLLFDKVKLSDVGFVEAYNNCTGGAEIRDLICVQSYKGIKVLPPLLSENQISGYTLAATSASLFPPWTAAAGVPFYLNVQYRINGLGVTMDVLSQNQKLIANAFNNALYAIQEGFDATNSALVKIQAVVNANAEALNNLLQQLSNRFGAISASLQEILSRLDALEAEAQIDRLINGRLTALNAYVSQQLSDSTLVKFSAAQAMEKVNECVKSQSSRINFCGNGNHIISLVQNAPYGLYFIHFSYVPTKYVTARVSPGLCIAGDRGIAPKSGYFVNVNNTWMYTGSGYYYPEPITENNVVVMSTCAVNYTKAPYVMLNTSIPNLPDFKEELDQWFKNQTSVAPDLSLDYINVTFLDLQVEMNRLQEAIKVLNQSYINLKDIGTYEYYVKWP

B1: COV49-54 (antibody, V domains shown)
VH: EVQLVESGGGLVQPGGSLRLSCAASGFIVSSNYMSWVRQAPGKGLEWVSMIYSGGSTVYADSVKGRFTISRDISKNTLYLQMNSLRAEDTAVYYCALETFDYWGQGTLVTVSS
VL: DIQMTQSPSSLSASVGDRVTITCRASQGITNHLAWYQQKPGKVPKLLIYAASTLQSGVPSRFSGSGYGTDFTLTISSLQPEDVASYYCQKYDSAPRTFGQGTKVEIK
B2: COV23-01 (antibody, V domains shown)
VH: QVTLKESGPVLVKPTETLTLTCTVSGFSLSNTKMGVSWIRQPPGKALEWLAHIFSNDRKSYTTSLKSRLTISEDTSKSQIVLTMTNMDPVDTATYYCARIGAGGTYNFYYYMDVWGKGTTVTVSS
VL: EIVLTQSPATLSLSPGERATLSCRASQSVSSYLAWYQQKPGQAPRLLIYDASNRATGIPARFSGSGSGTDFTLTISSLEPEDFAVYYCQQRSLYYTFGQGTKLEIK

How the values were obtained:
[1] = molecular target: T2, SARS-CoV-2 spike S2 subunit, recombinant (SARS-CoV-2, UniProt P0DTC2 686-1213); assay: bead flow cytometry, AUC minus CD4
T2 construct: domain: S2 subunit

HCoV-OC43 spike protein = molecular target: T1, HCoV-OC43 spike protein; assay: bead flow cytometry, AUC minus CD4

Binder | binding result [1] | binding result (HCoV-OC43 spike protein)
B1 | no binding (tested: 200 µg/mL) | 
B2 |  | no binding (tested: 200 µg/mL)
